Measurements taken from US20250303000A1, “COMPOSITIONS AND METHODS FOR INDUCIBLE ALTERNATIVE SPLICING REGULATION OF GENE EXPRESSION” (THE CHILDREN'S HOSPITAL OF PHILADELPHIA, priority 2022, published 2025).

Columns and labels:
loxP-STOP cassette = assay: In vivo gene editing in liver of Ai14 mice (FACS, histology, genomic DNA PCR, Sanger sequencing); conditions: LMI070 50 mg kg-1, 7 days after LMI070
Text: FIGS. 1A-1H. Generation of the miniXon cassette and assessment of miniXon control of SaCas9 for in vivo gene editing in liver. a, Cartoon depicting the AAV genome size with the SF3B3-Xon and SF3B3-miniXon cassettes. b, Luciferase induction in HEK293 cells transfected with SF3B3-miniXon-luciferase or SF3B3-Xon-luciferase in response to varying doses of LMI070. All samples are normalized to Renilla luciferase activity and are relative to DMSO treated cells. Data are the mean±s.e.m. of 8 biological replicates (***P<0.001 versus SF3B3.Xon, two-way ANOVA followed by Bonferroni's post hoc test). c, Splicing inclusion assays of the LMI070-induced exon at 100 nM LMI070. Pseudo exon inclusion in the Xon cassette was detected using primers flanking the pseudoexon (left) or by priming within the novel exon sequence (right; 4 technical replicates). d, Experimental design. […]
The inventors have previously developed switch-on cassettes from LMI070-responsive exons, including from the minimal intronic intervening sequences necessary to recapitulate splicing of pseudoexons in SF3B3 (SF3B3.X^on; X^on). […] AAV8-miniX^on-SaCas9 plus single-guide RNAs targeting the loxP-STOP sequence in Ai14 mice were administered intravenously; after several weeks, LMI070 was administered and gene editing was assessed 7 days later (FIG. 1D). […]

luciferase = assay: Luciferase induction in HEK293 cells transfected with switch cassette-luciferase and treated with LMI070; assay type: cell-based, human; conditions: varying doses of LMI070, 24 h
Text: FIGS. 1A-1H. Generation of the miniXon cassette and assessment of miniXon control of SaCas9 for in vivo gene editing in liver. a, Cartoon depicting the AAV genome size with the SF3B3-Xon and SF3B3-miniXon cassettes. b, Luciferase induction in HEK293 cells transfected with SF3B3-miniXon-luciferase or SF3B3-Xon-luciferase in response to varying doses of LMI070. All samples are normalized to Renilla luciferase activity and are relative to DMSO treated cells. Data are the mean±s.e.m. of 8 biological replicates (***P<0.001 versus SF3B3.Xon, two-way ANOVA followed by Bonferroni's post hoc test). c, Splicing inclusion assays of the LMI070-induced exon at 100 nM LMI070. Pseudo exon inclusion in the Xon cassette was detected using primers flanking the pseudoexon (left) or by priming within the novel exon sequence (right; 4 technical replicates). d, Experimental design. Mice were injected with AAV8-miniXon-SaCas9 plus AAV8-sgAi14-eGFP (1×10^12 viral genomes, 1:1 ratio) and 2 weeks later dosed with vehicle or LMI070 at 50 mg kg-1 to induce SaCas9 expression and editing of the loxP-STOP cassette (guides: sgA14_1: 5′-[…]-3′, sgAi14_2: 5′-[…]-3′). One week later, mice were euthanized, and livers processed to assess gene editing by genomic DNA PCR, histology and FACS of isolated hepatocytes. e, Representative FACS analysis of hepatocytes obtained from Ai14 mice after LMI070 or vehicle treatment. The gating/sorting strategy (above), and the percentage of tdTomato expressing cells for each condition (below) is shown (4 biological replicates). f, Representative photomicrographs of liver sections obtained from AAV injected Ai14 mice 1-week after LMI070 treatment. tdTomato expression (red) is evident in LMI070 treated mice (5 mice per group; scale bars, 100 μm). g, SaCas9 mediated editing of the loxP-STOP cassette in Ai14 mice as detected by PCR assay of liver genomic DNA (3 of 5 mice with guides plus LMI, 2 of 4 mice with guides plus vehicle, 1 of 2 untreated mice are shown). […] The sequence shown is represented in SEQ ID NO: 29.
FIG. 2. Comparison of the miniX^on, SF3B3.miniXS3B (miniXS3B), and SF3B3.miniXS3B2 (miniXS3B2) systems for luciferase induction. To increase expression and induction of the miniXon cassette in response to LMI070, the kozak sequence within the LMI070 induced translation initiation exon was optimized, and splice sites located within the upstream and downstream intron eliminated. […]
To test these switches, the cassettes were cloned upstream of luciferase or cDNA. HEK293 cells were transfected with the candidate cassettes, treated with LMI070, and luciferase activity expression determined 24 h later.

SaCas9 = SaCas9 protein levels by western blot in HEK293 cells treated with DMSO or LMI070; assay type: cell-based, human; conditions: for SaCas9 protein level, DMSO treated cells / SaCas9 protein induction after LMI070 treatment: 24 h; for SaCas9 protein levels relative to SF3B3.miniXon cassette / SaCas9 protein induction after LMI070 treatment: LMI070 (100 nM)
Experimental: FIG. 3. Comparison of the miniX^on (miX^on), SF3B3.miniXS3B (m3B), and SF3B3.miniXS3B2 (m3B2) systems for HD editing control. (top) Cartoon depicting X^on splicing system for controlling Cas9 protein translation in response to LMI070. (middle, bottom) Bicistronic plasmids containing Xon.SaCas9 or miniXon.SaCas9 expression cassette together with a CMVeGFP expression cassettes were transfected in HEK293 cells and treated with DMSO (middle) or LMI070 (100 nM) (bottom) and Cas9 protein levels were determined by western blot 24 h later. eGFP proteins served as transfection control. Western blot is representative of 4 biological replicates.
While gene editing approaches provide an enormous opportunity for altering or removing disease alleles, prolonged expression of the editing machinery from viral vectors could be problematic. The editing enzymes are foreign proteins and may induce immune responses, and prolonged gene expression would increase opportunities for off-target editing (Charlesworth et al., 2019; Vakulskas et al., 2018). To test the efficacy of SF3B3.miXS3B and SF3B3.miXS3B2 to control translation of CRISPR effector proteins, SF3B3.miXS3B and SF3B3.miXS3B2-SaCas9-CRISPR expression cassettes were generated and SaCas9 protein levels were quantified in response to DMSO or LMI070 treatment in HEK293 cells (FIG. 3A).

Molecule | Editing of the loxP-STOP cassette (genomic DNA PCR, 355 bp product, Sanger sequencing) (loxP-STOP cassette; Ai14 mice liver) | tdTomato expression in hepatocytes / liver sections (loxP-STOP cassette; Ai14 mice, AAV8-miniXon-SaCas9 plus AAV8-sgAi14-eGFP i.v.) | Luciferase induction relative to X^on and miniX^on (luciferase) | Protein levels (luciferase) relative to SF3B3.miniX^on cassette (luciferase) | SaCas9 protein level, DMSO treated cells (SaCas9) | SaCas9 protein levels relative to SF3B3.miniXon cassette (SaCas9) | SaCas9 protein induction after LMI070 treatment (SaCas9)
CC1(C)CC(Oc2ccc(-c3ccc(-c4cn[nH]c4)cc3O)nn2)CC(C)(C)N1 [LMI070, 5-(1H-Pyrazol-4-yl)-2-(6-((2,2,6,6-tetramethylpiperidin-4-yl)oxy)pyridazin-3-yl) phenol] | observed | evident |  |  |  |  | 
miniXS3B2: miniX^on cassette with optimized Kozak/ATG and cryptic splicing sites eliminated; SEQ ID NO: 2 (nucleic acid, SF3B3.miniXS3B2 (m3B2; miniXS3B2; XS3B2)) DNA: GTTTAAACAAGCTTGGCAATCCGGTACTGTTGGTAAATTTCTCTACAACTTAACCTTACAGAGAGCCACTGGCTTCAGCTTTGCCTTTCTTGGTAACTTTTCTGGTAAGTTCTCTCGTTACCATCTTTTGAAATTTTAAATGAATTAATACATATCTTGCTTAATCTCTTGTGCAAAAAATGTTTTCCATTTATGACAAAACAAAAATTGTGTGAAATTTCAAATATTGGATTAAAAAATACAAAGTTACGGAAAATGAGGTACTAATGTTTATAAAATAAAAACTTTTTCTTGCCATTTGCAGATTAACATTTTTGAGTCAATCCAAGTGCCACCATGGAAAAAGTTCATGATTGTGTAGAGTAAGACATAATTTTGTTGAAATTTAACTCTGAATACTTAATGTGGTACTGAATACTTAATGTGGTACTGAGAAGCAGCCTAACTGACCACACAACATTCCACGCCTGGCTAATTTTTGTATTTTTAATAAAAACGGGGTTTCACCATGGTGGCCGGGCTGGTTCTGGTTGTTTATGATCTTTATTTTTTGGTGATCTAGGAACCAAACAACAAAAAATTGTTGTTTCCCGTGGGTCGGATCC |  |  | improved induction relative to X^on and miniX^on | higher protein levels relative to the previous SF3B3.miniX^on cassette | almost undetectable | higher | evident
miniXS3B: miniX^on cassette with optimized Kozak/ATG and cryptic splicing sites eliminated; SEQ ID NO: 1 (nucleic acid, SF3B3.miniXS3B (m3B; miniXS3B; XS3B)) DNA: TTTAAACAAGCTTGGCAATCCGGTACTGTTGGTAAATTTCTCTACAACTTAACCTTACAGAGAGCCACTGGCTTCAGCTTTGCCTTTCTTGGTAACTTTTCTGGTAAGTTCTCTCGTTACCATCTTTTGAAATTTTAAGTGAATTAATACATATCTTGCTTAATCTCTTGTGCAAAAAATGTTTTCCATTTATGACAAAACAAAAATTGTGTGAAATTTCAAATATTGGATTAGGAAATACAAAGTTACTGAAAGTGAGGTACTAATGTTTATAAAATAAAAACTTTTTCTTGCCATTTGCAGATTAACATTTTTGAGTCAATCCAAGTGCCACCATGGAAAAAGTTCATGATTGTGTAGAGTAAGACATAATTTTGTTGAAATTTAACTCTGAATACTTAATGTGGTACTGAATACTTAATGTGGTACTGAGAAGCAGCCTAACTGACCACACAACATTCCACGCCTGGCTAATTTTTGTATTTTTAATAAAAACGGGGTTTCACCATGGTGGCCGGGCTGGTTCTGGTTGTTTATGATCTTTATTTTTTGGTGATCTAGGAACCAAACAACAAAAAATTGTTGTTTCCCGTGGGTCGGATCC |  |  | improved induction relative to X^on and miniX^on | higher protein levels relative to the previous SF3B3.miniX^on cassette | almost undetectable | higher | evident
